Results taken from patent publication US20210079067A1 (US Dept. of Health and Human Services, published 2021).

T1: Zaire ebolavirus full-length GP (Zaire ebolavirus, UniProt Q05320 33-650)
T1 sequence: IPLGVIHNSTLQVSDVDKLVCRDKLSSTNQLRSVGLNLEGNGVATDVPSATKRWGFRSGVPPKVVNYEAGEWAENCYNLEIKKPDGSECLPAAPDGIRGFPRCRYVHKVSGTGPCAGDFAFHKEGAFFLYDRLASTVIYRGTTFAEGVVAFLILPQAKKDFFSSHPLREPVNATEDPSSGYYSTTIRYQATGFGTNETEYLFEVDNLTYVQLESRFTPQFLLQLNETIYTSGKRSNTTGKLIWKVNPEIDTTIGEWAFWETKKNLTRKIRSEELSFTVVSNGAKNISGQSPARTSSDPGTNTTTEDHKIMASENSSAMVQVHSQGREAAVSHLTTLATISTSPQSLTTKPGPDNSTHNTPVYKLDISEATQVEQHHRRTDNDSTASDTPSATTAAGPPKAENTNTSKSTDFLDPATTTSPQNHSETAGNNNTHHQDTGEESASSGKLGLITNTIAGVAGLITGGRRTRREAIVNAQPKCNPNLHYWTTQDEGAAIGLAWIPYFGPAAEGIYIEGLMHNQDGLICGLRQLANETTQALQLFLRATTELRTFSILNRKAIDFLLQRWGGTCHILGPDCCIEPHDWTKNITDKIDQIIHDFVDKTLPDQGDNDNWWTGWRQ

T2: Zaire ebolavirus secreted GP (sGP) (Zaire ebolavirus, UniProt P60170 33-324)
T2 sequence: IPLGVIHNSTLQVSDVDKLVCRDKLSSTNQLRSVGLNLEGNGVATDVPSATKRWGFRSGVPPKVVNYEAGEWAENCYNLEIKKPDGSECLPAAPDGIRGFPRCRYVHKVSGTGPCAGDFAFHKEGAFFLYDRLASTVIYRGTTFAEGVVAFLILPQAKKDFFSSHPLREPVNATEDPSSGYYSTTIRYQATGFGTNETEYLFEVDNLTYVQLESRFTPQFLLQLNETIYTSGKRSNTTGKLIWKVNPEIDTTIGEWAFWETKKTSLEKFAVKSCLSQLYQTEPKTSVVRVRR

B1: mAb100 (antibody, V domains shown)
VH: QVQLQESGPGLVKPSDTLSLTCTVSGGSLSSFYWSWIRQPPGKGLEWIGYIYYSGSPNYSPSLESRVTMSVDTTRNQISLKLDSVTAADTAVYYCVRASRSYYWGSYRPTAFDSWGQGTLVTVSS
VL: SYELTQPLSVSVSPGQTAIFTCSGDNLGDKYVCWFQQRPGQSPMLLIYQDNKRPSGIPERFSGSNSGNTATLTISGTQSTDEADYYCQTWDSTVVFGGGTKLTVL
B2: S1-4-A09 antibody (IgG1 expressed version) (antibody, V domains shown)
VH: QVQLQESGPGLVKPSETLSLTCVVSGGILSSFYWNWIRQPPGKGLEWIGNIYYSGSPNYNASFQSRVAISVDTSKNQISLNLKSVTAADTAMYYCVRASRAYLWGSYRPTALDLWGQGSLVTVSS
VL: SYELTQPPSVSVSPGQTATITCSGDKLGDKYTSWFQQRPGQSPLLVIYQDNKRPSGLPARFSGSNSGNTATLTISGTQAMDEADYLCQVWDSGAVFGGGTKLTVLG
B3: S1-4-A09 Fab (Fab, V domains shown)
VH: B2 VH
VL: SYELTQPPSVSVSPGQTATITCSGDKLGDKYTSWFQQRPGQSPLLVIYQDNKRPSGLPARFSGSNSGNTATLTISGTQAMDEADYLCQVWDSGAVFGGGTKLTVL

How the values were obtained:
[1] = molecular target: T1, Zaire ebolavirus full-length GP; assay: ELISA on plates coated with purified full-length Zaire ebolavirus GP, A450
[2] = molecular target: T2, Zaire ebolavirus secreted GP (sGP); assay: ELISA on plates coated with purified Zaire ebolavirus sGP, A450
[3] = molecular target: T2, Zaire ebolavirus secreted GP (sGP); assay: biolayer interferometry, pH 7.4

Binder	EC50 (read off the curve) [1] [µg/mL]	binding result [2]	binding result [3]
B1	~0.02		
B2	~0.03	no binding	
B3			no binding
